Assay results published in the Immune Epitope Database (IEDB).

Key:
[1] = biological target: HLA-A*02:11; assay: IEDB peptide-MHC binding, purified MHC/competitive/fluorescence; filed as Kd, often an IC50 or EC50 that approximates it; ≥ and ≤ were set here for values at or beyond the usual limits of such assays
[2] = biological target: HLA-A*02:19; assay: as above
[3] = biological target: HLA-A*69:01; assay: as above
[4] = biological target: HLA-A*02:06; assay: as above; details: source organism: Human immunodeficiency virus 1
[5] = biological target: HLA-A*02:01; assay: as above
[6] = biological target: HLA-A*02:12; assay: as above
[7] = biological target: HLA-A*02:03; assay: as above
[8] = biological target: HLA-A*02:16; assay: as above
[9] = biological target: HLA-A*03:01; assay: IEDB peptide-MHC binding, purified MHC/competitive/fluorescence; ≥ and ≤ were set here for values at or beyond the usual limits of such assays
[10] = biological target: HLA-A*02:01; assay: as above
[11] = biological target: HLA-A*11:01; assay: as above
[12] = biological target: HLA-A*01:01; assay: as above
[13] = biological target: HLA-B*15:01; assay: as above
[14] = biological target: HLA-B*15:02; assay: IEDB peptide-MHC binding, purified MHC/competitive/fluorescence; filed as Kd, often an IC50 or EC50 that approximates it; ≥ and ≤ were set here for values at or beyond the usual limits of such assays
[15] = biological target: HLA-B*18:01; assay: as above
[16] = biological target: HLA-B*51:01; assay: as above
[17] = biological target: HLA-B*46:01; assay: as above
[18] = biological target: HLA-B*39:01; assay: as above
[19] = biological target: HLA-B*57:01; assay: as above
[20] = biological target: HLA-A*03:01; assay: as above
[21] = biological target: HLA-A*24:03; assay: as above
[22] = biological target: HLA-A*26:01; assay: as above
[23] = biological target: HLA-B*15:01; assay: as above
[24] = biological target: HLA-B*27:03; assay: as above
[25] = biological target: HLA-A*68:02; assay: as above
[26] = biological target: HLA-B*15:17; assay: as above
[27] = biological target: HLA-A*29:02; assay: as above; details: source organism: Brucella suis ATCC 23445
[28] = biological target: HLA-B*40:01; assay: as above; details: source organism: Salmonella enterica subsp. enterica serovar Typhi
[29] = biological target: HLA-B*27:05; assay: as above; details: source organism: Salmonella enterica subsp. enterica serovar Typhi
[30] = biological target: HLA-A*68:01; assay: IEDB peptide-MHC binding, purified MHC/competitive/radioactivity; filed as Kd, often an IC50 or EC50 that approximates it; ≥ and ≤ were set here for values at or beyond the usual limits of such assays; details: source organism: Vaccinia virus WR
[31] = biological target: HLA-A*31:01; assay: as above; details: source organism: Vaccinia virus WR
[32] = biological target: HLA-A*03:01; assay: as above; details: source organism: Vaccinia virus WR
[33] = biological target: HLA-A*11:01; assay: as above; details: source organism: Vaccinia virus WR
[34] = biological target: HLA-A*33:01; assay: as above; details: source organism: Vaccinia virus WR
[35] = biological target: HLA-A*26:02; assay: IEDB peptide-MHC binding, purified MHC/competitive/fluorescence; filed as Kd, often an IC50 or EC50 that approximates it; ≥ and ≤ were set here for values at or beyond the usual limits of such assays; details: source organism: Human immunodeficiency virus 1
[36] = biological target: HLA-A*30:01; assay: as above; details: source organism: Human immunodeficiency virus 1
[37] = biological target: HLA-A*11:01; assay: as above; details: source organism: Human immunodeficiency virus 1
[38] = biological target: HLA-A*01:01; assay: as above; details: source organism: Human immunodeficiency virus 1
[39] = biological target: HLA-A*24:02; assay: IEDB peptide-MHC binding, purified MHC/competitive/fluorescence; ≥ and ≤ were set here for values at or beyond the usual limits of such assays; details: source organism: Zaire ebolavirus
[40] = biological target: HLA-B*07:02; assay: as above; details: source organism: Zaire ebolavirus
[41] = source organism: Human immunodeficiency virus 1
[42] = source organism: Vaccinia virus
[43] = source organism: Zaire ebolavirus
[44] = source organism: Escherichia coli HS
[45] = source organism: Brucella suis ATCC 23445
[46] = source organism: Salmonella enterica subsp. enterica serovar Typhi
[47] = source organism: Vaccinia virus Copenhagen

For ALVEMGHHV, the Kd [1, 41] was 0.0018 µM, the Kd [2, 41] was 0.134 µM and the Kd [3, 41] was 2.01 µM. For the same sequence, the Kd [4] was 0.00118 µM, the Kd [5, 41] was 0.334 µM and the Kd [6, 41] was 0.0175 µM. The Kd [7, 41] was 0.00364 µM and the Kd [8, 41] was 0.00307 µM.
AVDRGCLRI gave an IC50 [9, 42] of 16.1 µM, an IC50 [10, 42] of 3.51 µM and an IC50 [11, 42] of 11.8 µM. For the same sequence, the IC50 [12, 42] was ≥ 183 µM.
For DSDNTQSEH, the IC50 [12, 43] was ≥ 84.2 µM.
Work on FLESGAVKY yielded an IC50 [10, 43] of 26.3 µM, an IC50 [12, 43] of 3.4 µM and an IC50 [13, 43] of 19.5 µM.
FLRSSSAIE was tested, and the Kd ([14]; source organism: Coxiella burnetii Dugway 5J108-111) was ≥ 20 µM.
Work on GQRDTDVPY yielded a Kd ([14]; source organism: Yersinia enterocolitica subsp. enterocolitica 8081) of 1.24 µM.
With ISLWGSLLK the Kd [15, 44] was ≥ 20 µM, the Kd [16, 44] was ≥ 20 µM and the Kd [17, 44] was ≥ 20 µM. For the same sequence, the Kd [2, 44] was ≥ 20 µM, the Kd [3, 44] was ≥ 20 µM and the Kd [18, 44] was ≥ 20 µM. The Kd [19, 44] was ≥ 20 µM, the Kd [20, 44] was 0.0339 µM and the Kd [21, 44] was ≥ 20 µM. For the same sequence, the Kd [22, 44] was ≥ 20 µM, the Kd [5, 44] was ≥ 20 µM and the Kd [6, 44] was ≥ 20 µM. The Kd [23, 44] was ≥ 20 µM, the Kd [24, 44] was ≥ 20 µM and the Kd [8, 44] was ≥ 20 µM. For the same sequence, the Kd [25, 44] was ≥ 20 µM.
In the case of ITAVNRYFK, the Kd [15, 45] is reported as ≥ 20 µM, the Kd [16, 45] is reported as ≥ 20 µM and the Kd [17, 45] is reported as ≥ 20 µM. For the same sequence, the Kd [26, 45] was ≥ 20 µM, the Kd [1, 45] was ≥ 20 µM and the Kd [2, 45] was ≥ 20 µM. For the same sequence, the Kd [3, 45] was ≥ 20 µM, the Kd [18, 45] was ≥ 20 µM and the Kd [19, 45] was ≥ 20 µM. The Kd [27] was 0.757 µM, the Kd [20, 45] was 0.057 µM and the Kd [21, 45] was ≥ 20 µM. For the same sequence, the Kd [22, 45] was ≥ 20 µM, the Kd [5, 45] was ≥ 20 µM and the Kd [6, 45] was ≥ 20 µM. The Kd [23, 45] was ≥ 20 µM, the Kd [7, 45] was ≥ 20 µM and the Kd [24, 45] was ≥ 20 µM. The Kd [8, 45] was ≥ 20 µM and the Kd [25, 45] was ≥ 20 µM.
KMGKAGYVT was tested, and the Kd [1, 41] was 0.0245 µM, the Kd [2, 41] was 6 µM and the Kd [3, 41] was ≥ 20 µM. For the same sequence, the Kd [4] was 0.609 µM, the Kd [5, 41] was 0.323 µM and the Kd [6, 41] was 1.21 µM. For the same sequence, the Kd [7, 41] was 0.196 µM and the Kd [8, 41] was 0.261 µM.
Work on KQFCLSILL yielded a Kd [18, 46] of 0.0646 µM, a Kd [5, 46] of 0.0029 µM and a Kd [28] of 0.0905 µM. The Kd [29] was 0.208 µM.
With LSGVNNLEH the IC50 [9, 43] was 43.5 µM, the IC50 [11, 43] was 5.06 µM and the IC50 [12, 43] was ≥ 167 µM.
For MEDNFSIYI, the Kd [28] was 0.0034 µM and the Kd [23, 46] was ≥ 20 µM.
MLEGETKLY was tested, and the Kd [30] was 17 µM, the Kd [31] was ≥ 61.4 µM and the Kd [32] was 0.22 µM. For the same sequence, the Kd [33] was 7.06 µM, the Kd [34] was ≥ 57.1 µM and the IC50 [10, 47] was ≥ 166 µM. The IC50 [12, 47] was 8.1 µM and the IC50 [13, 47] was 61.7 µM.
Sequence RSLYNTVAVLY has a Kd [15, 41] of 0.25 µM, a Kd [26, 41] of 0.0118 µM and a Kd [35] of 2.36 µM. The Kd [4] was 0.597 µM, the Kd [36] was ≥ 20 µM and the Kd [37] was 1.52 µM. For the same sequence, the Kd [38] was ≥ 20 µM, the Kd [23, 41] was 1.32 µM and the Kd [7, 41] was 1.36 µM.
RTFSIPLGV was tested, and the IC50 [39] was 33 µM, the IC50 [40] was ≥ 167 µM and the IC50 [9, 43] was 3.46 µM. The IC50 [10, 43] was 0.321 µM, the IC50 [11, 43] was 1.62 µM and the IC50 [13, 43] was ≥ 221 µM.
In the case of WIGQTSHGW, the Kd ([14]; source organism: Vibrio cholerae) is reported as ≥ 20 µM.
